Self-cleavage data for 32 variants are collected here from the RNAGym collection of RNA variant scans (doi:10.7554/elife.80360).

The chains are these.
B1: HDV Ribozyme (parent)
chain: GGCCGGCAUGGUCCCAGCCUCCUCGCUGGCGCCGGCUGGGCAACAUUCCGAGGGGACCGUCCCCUCGGUAAUGGCGAAUGGGACCCA

In the data set the parent is B1. Description: self-cleavage, relative activity (ratio to wild type); higher = more cleavage; co-transcriptional.
In the case of GGCCGGCAUGGUCCCAGCCUCCUCACUGGCGCCGGCUGGGCAACAUUCCGAGGGGACCGUCCCCUCGGUAAUCGCGAAUGGGACCCA, the self-cleavage was 0.113.

As for GGCCGGCAUGGUCCCAGCCUCCUCACUGGCGCCGGCUGGGCAACAUUCCGAGGGGACCUUCCCCUCGGUAAUGGCGAAUGGGACCCA, the self-cleavage came to 0.264. To GGCCGGCAUGGUCCCAGCCUCCUCACUGGCGCCGGCUGGGCAACAUUCCGAGGGGACCAUCCCCUCGGUAAUGGCGAAUGGGACCCA belongs 0.189; to GGCCGGCAUGGUCCCAGCCUCCUCACUGGCGCCGGCUGGGCAACAUUCCGACGGGACCGUCCCCUCGGUAAUGGCGAAUGGGACCCA, 0.174. For GGCCGGCAUGGUCCCAGCCUCCUCACUGGCGCCGGCUGGGCAACAUUCCGAAGGGACCGUCCCCUCGGUAAUGGCGAAUGGGACCCA, the self-cleavage stood at 0.0863. The result for GGCCGGCAUGGUCCCAGCCUCCUCACUGGCGCGGGCUGGGCAACAUUCCGAGGGGACCGUCCCCUCGGUAAUGGCGAAUGGGACCCA reads 0.0228; that for GGCCGGCAUGGUCCCAGCCUCCUCACUGGCGCAGGCUGGGCAACAUUCCGAGGGGACCGUCCCCUCGGUAAUGGCGAAUGGGACCCA, 0.0863. GGCCGGCAUGGUCCCAGCCUCCUCACUGGCGCCGGCUGGGCAACAUUCCGAGGGGACCGUCCACUCGGUAAUGGCGAAUGGGACCCA: the self-cleavage was determined as 0.125.

GGCCGGCAUGGUCCCAGCCUCCUCACUGGCGCCGGCUGGGCAACAUUCCGAGGGGACCGUCCCCUCGGUAAUGGCGAAUGGCACCCA: the self-cleavage stood at 0.089. To GGCCGGCAUGGUCCCAGCCUCCUCACUGGCGCCGGCUGGGCAACAUUCCGAGGGGACCGUCCCCUCGGUAAUGGCGAAUGGGACCCU belongs 0.277; to GGCCGGCAUGGUCCCAGCCUCCUCACUGGCGCCGGCUGGGCAACAUUCCGAGGGGACCGUCCCCUCGGUAAUGGCGAAUGGGACCCG, 0.163. For GGCCGGCAUGGUCCCAGCCUCCUCACUGGCGCCGGCUGGGCAAGAUUCCGAGGGGACCGUCCCCUCGGUAAUGGCGAAUGGGACCCA, the self-cleavage was found to be 0.0923. The result for GGCCGGCAUGGUCCCAGCCUCCUCACUGGCGCCGGCUGGGCAACAUACCGAGGGGACCGUCCCCUCGGUAAUGGCGAAUGGGACCCA reads 0.0831; that for GGCCGGCAUGGUCCCAGCCUCCUCACUGGCGCCGGCUGGGCAACAUGCCGAGGGGACCGUCCCCUCGGUAAUGGCGAAUGGGACCCA, 0.32; that for GGCCGGCAUGGUCCCAGCCUCCUCACUGGCGCCGGAUGGGCAACAUUCCGAGGGGACCGUCCCCUCGGUAAUGGCGAAUGGGACCCA, 0.0554.

With GGCCGGCAUGGUCCCAGCCUCCUCACUGGCGCCGGGUGGGCAACAUUCCGAGGGGACCGUCCCCUCGGUAAUGGCGAAUGGGACCCA, the self-cleavage was 0.0997.

Turning to GGCCGGCAUGGUCCCAGCCUCCUCACUGGCGCCGGCUGGGCAACAUUCCGAGGGGACCGUCCCCUGGGUAAUGGCGAAUGGGACCCA, the self-cleavage is 0.376. For the variant GGCCGGCAUGGUCCCAGCCUCCUCACUGGCGCCGGCUGAGCAACAUUCCGAGGGGACCGUCCCCUCGGUAAUGGCGAAUGGGACCCA, the self-cleavage was 0.172. Consider GGCCGGCAUGGUCCCAGCCUCCUCACUGGCGCCGGCUGGGCAACAUUCCGAGGGGACCGUCCCCUCGGUAAUGGCGGAUGGGACCCA, for which the self-cleavage was determined as 0.

Regarding GGCCGGCAUGGUCCCAGCCUCCUCACUGGCGCCGGCUGGGCAACAUUCCGAGGGGACCGUCCCCUCGGUAAUGGCGUAUGGGACCCA, the self-cleavage is 0. GGCCGGCAUGGUCCCAGCCUCCUCACUGGCGCCGGCGGGGCAACAUUCCGAGGGGACCGUCCCCUCGGUAAUGGCGAAUGGGACCCA: the self-cleavage was found to be 0.104.

As for GGCCGGCAUGGUCCCAGCCUCCUCACUGGCGCCGGCUGGGCAACAUUCCGAGGGGACCGUCCCCUCGGUAAUGGCGAAUGGGAGCCA, the self-cleavage is 0.17. To GGCCGGCAUGGUCCCAGCCUCCUCACUGACGCCGGCUGGGCAACAUUCCGAGGGGACCGUCCCCUCGGUAAUGGCGAAUGGGACCCA belongs 0.0567. The result for GGCCGGCAUGGUCCCAGCCUCCUCACUGGCGCCGGCUGGGCAACAUUCCGAGGGGACCGUCCCCCCGGUAAUGGCGAAUGGGACCCA reads 0.208; that for GGCCGGCAUGGUCCCAGCCUCCUCACUGGCCCCGGCUGGGCAACAUUCCGAGGGGACCGUCCCCUCGGUAAUGGCGAAUGGGACCCA, 0.0739; that for GGCCGGCAUGGUCCCAGCCUCCUCACUGGCGCCGGCUGGGCAACAUUCCGAGGGGACCGUCCCCUCGGUAAUGGCGAAAGGGACCCA, 0.0437. As to GGCCGGCAUGGUCCCAGCCUCCUCACUGGCGCCGGCUCGGCAACAUUCCGAGGGGACCGUCCCCUCGGUAAUGGCGAAUGGGACCCA, the self-cleavage stood at 0.0791. GGCCGGCAUGGUCCCAGCCUCCUCACUGGCGCCGGCUUGGCAACAUUCCGAGGGGACCGUCCCCUCGGUAAUGGCGAAUGGGACCCA: the self-cleavage came to 0.0744. GGCCGGCAUGGUCCCAGCCUCCUCACUGGCGACGGCUGGGCAACAUUCCGAGGGGACCGUCCCCUCGGUAAUGGCGAAUGGGACCCA: the self-cleavage amounted to 0.0848. As to GGCCGGCAUGGUCCCAGCCUCCUCACUGGCGCCGGCUGGGCAACAUUCCGAGGGGACCGUCCCCUCGGAAAUGGCGAAUGGGACCCA, the self-cleavage is 0.222. The result for GGCCGGCAUGGUCCCAGCCUCCUCACUGGCGCCGGCUGGGCAACAUUCCGAGGGGACCGUCCCCUCGGGAAUGGCGAAUGGGACCCA reads 0.233. The result for GGCCGGCAUGGUCCCAGCCUCCUCACUGGCGCCGGCUGGGCAACAUUCCGAGGGGACCGUCCCCUCGGUAGUGGCGAAUGGGACCCA reads 0.0594.
